Laboratory results as given in paper PMC6181577 (Molecular cell, 2018).

What was measured:
[1] = biological target: the molecule itself; assay: SEC
[2] = biological target: Ubiquitin (WT) (UniProt P0CG48 1-76); assay: NMR titration

Row | Binder | binding result [1] | Kd [2] [nM]
1 | UBQLN2 379–624 (domain or fragment, human) NPQLIQNMLSAPYMRSMMQSLSQNPDLAAQMMLNSPLFTANPQLQEQMRPQLPAFLQQMQNPDTLSAMSNPRAMQALMQIQQGLQTLATEAPGLIPSFTPGVGVGVLGTAIGPVGPVTPIGPIGPIVPFTPIGPIGPIGPTGPAAPPGSTGSGGPTGPTVSSAAPSETTSPTSESGPNQQFIQQMVQALAGANAPQLPNPEVRFQQQLEQLNAMGFLNREANLQALIATGGDINAAIERLLGSQPSW | binds | 
2 | UBQLN2 450–624 (domain or fragment, human) RAMQALMQIQQGLQTLATEAPGLIPSFTPGVGVGVLGTAIGPVGPVTPIGPIGPIVPFTPIGPIGPIGPTGPAAPPGSTGSGGPTGPTVSSAAPSETTSPTSESGPNQQFIQQMVQALAGANAPQLPNPEVRFQQQLEQLNAMGFLNREANLQALIATGGDINAAIERLLGSQPSW | binds | 3000
